Test results published in article PMC7679444.
One block for each binder: values may come before it.

Target: GST-HA-ATG16L1(231–607), Q676U5
Test: peptide microarray
Conditions: chain shown with the change; 800, 600, 400 nM; n = 9; read off a plot

Chain of GST-HA-ATG16L1(231–607), Q676U5 (Q676U5 231-607): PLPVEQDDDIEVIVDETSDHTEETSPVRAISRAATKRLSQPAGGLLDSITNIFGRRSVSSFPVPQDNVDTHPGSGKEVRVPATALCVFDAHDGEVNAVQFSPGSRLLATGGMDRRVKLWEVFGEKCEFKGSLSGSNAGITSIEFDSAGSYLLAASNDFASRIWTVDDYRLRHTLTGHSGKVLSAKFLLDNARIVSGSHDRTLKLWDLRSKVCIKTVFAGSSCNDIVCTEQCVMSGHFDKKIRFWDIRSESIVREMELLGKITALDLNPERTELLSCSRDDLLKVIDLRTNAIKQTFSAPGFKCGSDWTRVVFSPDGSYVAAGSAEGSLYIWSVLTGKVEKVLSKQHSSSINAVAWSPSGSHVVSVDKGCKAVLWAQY

percent of parent: 110 % WT
B1: TMEM59 peptide (residues 268–280), wild type, Q9BXS4 K273del; S275del; I276del (peptide)
chain: YVPSELYGDL

percent of parent: 160 % WT
B2: TMEM59 peptide (residues 268–280), wild type, Q9BXS4 V269del; P270del; S271del (peptide)
chain: YEKLSIYGDL
